Patent publication US6979572B1, “Compositions and methods for inhibiting inward-rectifier potassium channels” (Trustees of the University of Pennsylvania, priority 1998, dated 2005)
Where two headings read alike, the source gives them in different places. Peptide text beside a SMILES is read from it.

Experiments:
GIRK1/4 channel = target: T1, GIRK1/4 channel (Rattus norvegicus, UniProt P48548+P63251); assay: cell-based; settings: for inhibition at 1 µM: read-out: inhibition of the GIRK1/4 channel
T1 construct: expressed in transfected cells; host or cells: Xenopus laevis oocytes (cRNA injection)
T1 sequence (P63251 1-501): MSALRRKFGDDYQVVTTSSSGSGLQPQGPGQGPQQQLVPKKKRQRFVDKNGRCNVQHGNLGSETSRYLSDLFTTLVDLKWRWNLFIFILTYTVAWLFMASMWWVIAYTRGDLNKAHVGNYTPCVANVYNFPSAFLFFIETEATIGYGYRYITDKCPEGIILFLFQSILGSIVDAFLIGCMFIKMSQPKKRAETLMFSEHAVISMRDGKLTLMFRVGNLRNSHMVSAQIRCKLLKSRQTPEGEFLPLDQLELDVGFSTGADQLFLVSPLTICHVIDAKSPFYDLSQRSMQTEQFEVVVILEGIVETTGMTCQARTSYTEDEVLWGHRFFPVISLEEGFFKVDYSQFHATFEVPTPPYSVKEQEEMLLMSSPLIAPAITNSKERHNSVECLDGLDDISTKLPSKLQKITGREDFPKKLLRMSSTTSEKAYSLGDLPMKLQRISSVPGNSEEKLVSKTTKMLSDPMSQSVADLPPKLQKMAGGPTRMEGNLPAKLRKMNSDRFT
T1 sequence (P48548 1-419): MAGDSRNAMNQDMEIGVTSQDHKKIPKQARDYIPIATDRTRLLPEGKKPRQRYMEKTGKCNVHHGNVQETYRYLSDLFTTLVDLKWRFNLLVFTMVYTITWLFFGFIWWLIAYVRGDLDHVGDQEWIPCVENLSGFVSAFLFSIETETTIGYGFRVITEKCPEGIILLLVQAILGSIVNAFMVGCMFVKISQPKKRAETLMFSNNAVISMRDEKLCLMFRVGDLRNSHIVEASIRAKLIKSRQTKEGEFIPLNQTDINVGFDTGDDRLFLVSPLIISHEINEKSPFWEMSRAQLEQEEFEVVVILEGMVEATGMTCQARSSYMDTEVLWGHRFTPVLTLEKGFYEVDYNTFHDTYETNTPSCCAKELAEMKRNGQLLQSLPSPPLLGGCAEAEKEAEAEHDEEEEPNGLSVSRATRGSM

[1] = target: T2, GIRK1/4 inward-rectifier K+ channel, P63251
T2 chain 1: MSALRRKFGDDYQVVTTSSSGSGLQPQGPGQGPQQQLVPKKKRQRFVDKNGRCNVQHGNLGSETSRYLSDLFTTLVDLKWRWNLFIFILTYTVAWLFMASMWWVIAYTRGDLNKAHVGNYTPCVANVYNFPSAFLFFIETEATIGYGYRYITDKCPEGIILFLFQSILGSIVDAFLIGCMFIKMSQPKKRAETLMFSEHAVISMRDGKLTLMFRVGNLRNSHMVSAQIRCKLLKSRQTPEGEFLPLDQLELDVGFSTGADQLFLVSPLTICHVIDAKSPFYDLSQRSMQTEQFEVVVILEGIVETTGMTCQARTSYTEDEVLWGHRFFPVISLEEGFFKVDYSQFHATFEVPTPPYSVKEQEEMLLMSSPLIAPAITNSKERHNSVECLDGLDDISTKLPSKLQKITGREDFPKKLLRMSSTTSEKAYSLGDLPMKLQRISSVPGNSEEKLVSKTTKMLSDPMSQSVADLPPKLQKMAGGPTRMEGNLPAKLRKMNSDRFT
T2 chain 2: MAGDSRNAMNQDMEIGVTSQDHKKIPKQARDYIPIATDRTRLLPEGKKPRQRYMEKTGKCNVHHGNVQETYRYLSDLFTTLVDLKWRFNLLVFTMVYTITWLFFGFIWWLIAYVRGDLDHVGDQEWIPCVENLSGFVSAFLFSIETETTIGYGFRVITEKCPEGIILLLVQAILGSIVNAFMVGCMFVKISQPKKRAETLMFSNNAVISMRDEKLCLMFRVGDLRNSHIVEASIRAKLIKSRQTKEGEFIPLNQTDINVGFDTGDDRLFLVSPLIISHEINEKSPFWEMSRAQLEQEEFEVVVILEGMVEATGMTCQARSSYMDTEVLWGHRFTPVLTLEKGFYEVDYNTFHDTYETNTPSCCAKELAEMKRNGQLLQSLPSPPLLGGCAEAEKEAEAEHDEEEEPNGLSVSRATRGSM

[2] = target: T3, ROMK1 inward-rectifier K+ channel (wild-type), P35560
T3 chain: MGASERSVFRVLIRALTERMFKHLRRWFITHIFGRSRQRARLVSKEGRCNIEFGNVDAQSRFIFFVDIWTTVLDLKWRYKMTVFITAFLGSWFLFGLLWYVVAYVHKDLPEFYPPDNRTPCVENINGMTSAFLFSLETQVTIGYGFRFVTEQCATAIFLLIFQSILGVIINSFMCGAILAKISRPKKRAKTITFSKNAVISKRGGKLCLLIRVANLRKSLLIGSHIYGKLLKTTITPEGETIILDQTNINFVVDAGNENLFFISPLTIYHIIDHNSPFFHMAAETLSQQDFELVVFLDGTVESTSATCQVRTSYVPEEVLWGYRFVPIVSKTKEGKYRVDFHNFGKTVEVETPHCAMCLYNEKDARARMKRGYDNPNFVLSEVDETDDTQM

[3] = target: T2, GIRK1/4 inward-rectifier K+ channel, …
[4] = target: T4, ROMK1 N171D channel, P35560
T4 chain: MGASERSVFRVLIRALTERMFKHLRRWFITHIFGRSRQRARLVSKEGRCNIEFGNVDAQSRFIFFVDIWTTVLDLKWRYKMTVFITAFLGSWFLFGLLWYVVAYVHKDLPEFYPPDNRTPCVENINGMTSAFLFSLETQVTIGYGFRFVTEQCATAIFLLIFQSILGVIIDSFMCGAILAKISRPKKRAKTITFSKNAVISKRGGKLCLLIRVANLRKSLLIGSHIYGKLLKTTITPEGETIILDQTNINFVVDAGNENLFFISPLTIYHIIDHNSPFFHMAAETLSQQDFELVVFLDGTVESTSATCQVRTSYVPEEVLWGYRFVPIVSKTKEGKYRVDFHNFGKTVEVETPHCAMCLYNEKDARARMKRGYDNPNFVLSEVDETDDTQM

[5] = target: T5, ROMK1 F146A channel, P35560
T5 chain: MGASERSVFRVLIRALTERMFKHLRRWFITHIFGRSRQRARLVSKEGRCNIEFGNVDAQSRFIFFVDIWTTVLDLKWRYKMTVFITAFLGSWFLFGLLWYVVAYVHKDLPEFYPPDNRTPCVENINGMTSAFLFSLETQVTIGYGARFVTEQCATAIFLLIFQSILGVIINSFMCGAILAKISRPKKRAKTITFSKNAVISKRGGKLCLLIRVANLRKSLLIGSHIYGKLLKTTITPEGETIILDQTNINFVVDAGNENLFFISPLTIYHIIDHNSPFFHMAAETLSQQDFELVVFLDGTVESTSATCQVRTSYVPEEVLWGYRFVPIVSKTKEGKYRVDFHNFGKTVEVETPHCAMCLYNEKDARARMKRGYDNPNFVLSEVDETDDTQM

[6] = target: T6, ROMK1 G127S channel, P35560
T6 chain: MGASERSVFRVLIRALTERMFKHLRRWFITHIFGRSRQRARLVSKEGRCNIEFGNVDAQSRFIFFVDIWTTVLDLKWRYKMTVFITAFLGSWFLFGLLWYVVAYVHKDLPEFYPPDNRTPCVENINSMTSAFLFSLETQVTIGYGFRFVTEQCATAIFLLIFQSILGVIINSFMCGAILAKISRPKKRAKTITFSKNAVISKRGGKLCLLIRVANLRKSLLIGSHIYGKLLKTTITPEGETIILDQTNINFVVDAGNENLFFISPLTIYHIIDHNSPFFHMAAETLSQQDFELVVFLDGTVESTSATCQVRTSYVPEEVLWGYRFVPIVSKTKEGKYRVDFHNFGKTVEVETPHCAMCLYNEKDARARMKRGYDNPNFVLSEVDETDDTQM

[7] = target: T7, ROMK1 N124A channel, P35560
T7 chain: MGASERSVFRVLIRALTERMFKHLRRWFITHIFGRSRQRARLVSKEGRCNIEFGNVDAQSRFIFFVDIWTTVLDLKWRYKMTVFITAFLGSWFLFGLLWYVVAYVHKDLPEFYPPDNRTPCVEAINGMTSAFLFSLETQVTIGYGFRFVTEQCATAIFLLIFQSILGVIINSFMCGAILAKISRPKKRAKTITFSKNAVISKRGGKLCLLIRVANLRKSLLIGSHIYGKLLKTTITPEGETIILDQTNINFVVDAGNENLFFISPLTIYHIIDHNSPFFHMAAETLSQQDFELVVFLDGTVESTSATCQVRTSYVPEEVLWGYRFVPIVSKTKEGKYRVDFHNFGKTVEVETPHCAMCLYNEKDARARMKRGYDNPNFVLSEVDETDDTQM

[8] = target: T2, GIRK1/4 inward-rectifier K+ channel, …; assay: cell-based or functional assay
[9] = target: T8, ROMK1 I142L channel, P35560
T8 chain: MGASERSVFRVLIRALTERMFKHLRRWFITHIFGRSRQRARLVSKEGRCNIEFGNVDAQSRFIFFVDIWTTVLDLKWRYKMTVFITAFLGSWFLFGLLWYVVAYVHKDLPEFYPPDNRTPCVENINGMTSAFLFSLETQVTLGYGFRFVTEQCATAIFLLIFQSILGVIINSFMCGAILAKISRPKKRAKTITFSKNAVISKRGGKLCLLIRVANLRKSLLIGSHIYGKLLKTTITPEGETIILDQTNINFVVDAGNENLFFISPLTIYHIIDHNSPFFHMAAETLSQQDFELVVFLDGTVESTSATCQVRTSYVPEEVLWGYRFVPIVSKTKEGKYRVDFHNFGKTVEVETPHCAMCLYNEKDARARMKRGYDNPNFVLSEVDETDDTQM

[10] = target: T2, GIRK1/4 inward-rectifier K+ channel, …

## CC(C)C[C@@H]1NC(=O)[C@H](C)NC(=O)[C@H]([C@@H](C)O)NC(=O)[C@H](CCC(=O)O)NC(=O)[C@@H]2CCCN2C(=O)[C@H](C)NC(=O)[C@H](CCCCN)NC(=O)[C@@H]2CSSC[C@@H](C(=O)N[C@@H](CCC(N)=O)C(=O)N[C@@H](CCC(N)=O)C(=O)N[C@@H](Cc3cnc[nH]3)C(N)=O)NC(=O)[C@H](CCCNC(=N)N)NC(=O)[C@H](CCCNC(=N)N)NC(=O)[C@H](C)NC(=O)[C@H](CSSC[C@H](N)C(=O)N[C@@H](CC(N)=O)C(=O)N2)NC1=O [apamin]
GIRK1/4 channel; GIRK1/4, read-out: affinity of the channel (Kd)
  Kd: > 1000 nM
GIRK1/4 channel; at 1 μM concentration
  inhibition at 1 µM: 20 to 30%

## CC[C@H](C)[C@H](N)C(=O)N[C@@H](CCCCN)C(=O)N[C@H]1CSSC[C@@H]2NC(=O)[C@H]([C@@H](C)CC)NC(=O)[C@H](Cc3c[nH]cn3)NC(=O)[C@@H]3CCCN3C(=O)[C@H](CCCCN)NC(=O)[C@H]([C@@H](C)CC)NC(=O)[C@H](C(C)C)NC(=O)[C@H](Cc3c[nH]cn3)NC(=O)[C@H](CCCNC(=N)N)NC(=O)[C@H](CCCCN)NC(=O)[C@H](CSSC[C@@H](C(=O)NCC(=O)N[C@@H](CCCCN)C(=O)N[C@@H](CC(N)=O)C(N)=O)NC(=O)[C@H]([C@@H](C)CC)NC(=O)[C@H](CCCCN)NC(=O)[C@H](CCCNC(=N)N)NC2=O)NC(=O)[C@H](CC(N)=O)NC1=O [MCDP, mast cell degranulating peptide] (HELM PEPTIDE1{I.K.C.N.C.K.R.H.V.I.K.P.H.I.C.R.K.I.C.G.K.N.[am]}$PEPTIDE1,PEPTIDE1,3:R3-15:R3|PEPTIDE1,PEPTIDE1,5:R3-19:R3$$$V2.0; N-terminus and C-terminus assumed; bridges inferred)
GIRK1/4 channel
  effect on / sensitivity of the GIRK1/4 channel, in words: do not inhibit the activity
  inhibition at 1 µM: 20 to 30%

## ALCNCNRIIIPHMCWKKCGKK (modifications not checked) [synthetic tertiapin]
[1]
  Kd: 8 nM
[2]
  Kd: 2 nM
[3]
  Kd: 8.6 nM
[4]
  Kd: 1.5 nM
[5]
  Kd: 65.2 nM
[6]
  Kd: 2.7 nM
[7]
  Kd: 13.9 nM
[8]
  inhibition of the GIRK1/4 current at 10 nM: 50%
[9]
  fold lower affinity than the wild-type ROMK1 channel: 8 fold

## ALCNCNRIIIPHMCWKKCGKK (modifications not checked) [native tertiapin]
[3]
  Kd: 8.2 nM

## CNCKAPETALCARRCQQH (modifications not checked) [apamin, P01500 28-45]
[1]
  fold lower affinity than for tertiapin: > 100 fold
[10]
  Kd: > 1000 nM

## IKCNCKRHVIKPHICRKICGKN (modifications not checked) [mast cell degranulating peptide, P01499 28-49]
[1]
  fold lower affinity than for tertiapin: > 100 fold
[10]
  Kd: > 1000 nM
